Laboratory results taken from US20020123614A1.

Key:
iC3b coated on plastic [1] = target: iC3b coated on plastic (UniProt P01024); assay: cell adhesion to immobilized iC3b; -DTT, -activation
iC3b coated on plastic [2] = target: iC3b coated on plastic (UniProt P01024); assay: cell adhesion to immobilized iC3b; -DTT, +activation
iC3b coated on plastic [3] = target: iC3b coated on plastic (UniProt P01024); assay: cell adhesion to immobilized iC3b; +DTT, +activation
[4] = target: LFA-1 high affinity open mutant K287C/K294C (αL K287C/K294C with β2) (human) (UniProt P05107); assay: flow cytometry, K562; normalised to TS2/4
[5] = target: LFA-1 low affinity closed mutant L289C/K294C (αL L289C/K294C with β2) (human) (UniProt P05107); assay: flow cytometry, K562; normalised to TS2/4
[6] = target: LFA-1 high affinity open mutant K287C/K294C (αL K287C/K294C with β2) (human) (UniProt P05107); assay: flow cytometry, 293T; normalised to TS2/4
[7] = target: LFA-1 low affinity closed mutant L289C/K294C (αL L289C/K294C with β2) (human) (UniProt P05107); assay: flow cytometry, 293T; normalised to TS2/4
[8] = target: wild-type LFA-1 (αL/β2 complex) (human) (UniProt P05107); assay: K562 (+CBRLFA-1/2) cell adhesion to immobilized ICAM-1
[9] = target: LFA-1 high affinity open mutant K287C/K294C (αL K287C/K294C with β2) (human) (UniProt P05107); assay: K562 cell adhesion to immobilized ICAM-1
[10] = target: LFA-1 single cysteine substitution mutant L289C (human) (UniProt P05107); assay: flow cytometry, 293T; normalised to TS2/4
[11] = target: LFA-1 single cysteine substitution mutant K287C (human) (UniProt P05107); assay: flow cytometry, 293T; normalised to TS2/4
[12] = target: LFA-1 single cysteine substitution mutant K294C (human) (UniProt P05107); assay: flow cytometry, 293T; normalised to TS2/4
[13] = target: wild-type LFA-1 (αL/β2 complex) (human) (UniProt P05107); assay: cell adhesion to immobilized ICAM-1
[14] = target: LFA-1 high affinity open mutant K287C/K294C (αL K287C/K294C with β2) (human) (UniProt P05107); assay: 293T cell adhesion to immobilized ICAM-1
[15] = target: wild-type LFA-1 (αL/β2 complex) (human) (UniProt P05107); assay: 293T cell adhesion to immobilized ICAM-1
[16] = target: LFA-1 high affinity open mutant K287C/K294C (αL K287C/K294C with β2) (human) (UniProt P05107); assay: flow cytometry on transfectants
[17] = target: isolated mutant K287C/K294C αL I-domain (V130-A338) expressed on K562 cells by the PDGFR transmembrane domain (human) (UniProt P20701); assay: flow cytometry
[18] = target: LFA-1 high affinity open mutant K287C/K294C (αL K287C/K294C with β2) (human) (UniProt P05107); assay: flow cytometry, K562; normalised to TS1/22
[19] = target: ICAM-1 purified from human tonsil, immobilized (human) (UniProt P05362); assay: 293T wild-type LFA-1 cell adhesion to immobilized ICAM-1
[20] = target: ICAM-1 purified from human tonsil, immobilized (human) (UniProt P05362); assay: 293T K287C/K294C LFA-1 cell adhesion to immobilized ICAM-1
[21] = target: LFA-1 high affinity open mutant K287C/K294C (αL K287C/K294C with β2) (human) (UniProt P05107); assay: cell adhesion to immobilized ICAM-1

Sequence of ICAM-1 purified from human tonsil, immobilized (human) (P05362 28-532 limits assumed, form in doubt): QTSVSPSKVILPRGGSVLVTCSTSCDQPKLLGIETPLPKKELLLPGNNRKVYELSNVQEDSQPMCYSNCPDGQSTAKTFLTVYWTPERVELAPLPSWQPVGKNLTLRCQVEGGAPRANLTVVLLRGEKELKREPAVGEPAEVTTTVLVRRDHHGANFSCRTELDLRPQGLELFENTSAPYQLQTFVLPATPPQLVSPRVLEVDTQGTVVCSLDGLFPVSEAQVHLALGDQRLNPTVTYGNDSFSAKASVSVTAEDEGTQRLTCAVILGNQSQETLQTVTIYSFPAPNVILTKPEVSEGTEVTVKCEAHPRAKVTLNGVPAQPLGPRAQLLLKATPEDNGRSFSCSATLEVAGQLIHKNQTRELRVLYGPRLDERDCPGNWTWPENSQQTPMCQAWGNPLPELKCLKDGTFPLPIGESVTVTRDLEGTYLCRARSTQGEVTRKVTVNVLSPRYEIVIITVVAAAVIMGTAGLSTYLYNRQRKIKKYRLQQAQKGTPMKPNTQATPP
Sequence of isolated mutant K287C/K294C αL I-domain (V130-A338) expressed on K562 cells by the PDGFR transmembrane domain (human) (P20701 155-363 K312C/K319C limits assumed, form in doubt): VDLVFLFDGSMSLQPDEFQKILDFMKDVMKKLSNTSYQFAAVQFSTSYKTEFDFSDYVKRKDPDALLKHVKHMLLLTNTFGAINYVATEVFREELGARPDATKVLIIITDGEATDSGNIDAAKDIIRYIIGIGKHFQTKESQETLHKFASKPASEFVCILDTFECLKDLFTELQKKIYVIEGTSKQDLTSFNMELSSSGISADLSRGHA

Row | Substance | % wild-type binding [4] [%] | % wild-type binding [5] [%] | % wild-type binding [6] [%] | % wild-type binding [7] [%] | % inhibition [8] [%] | % inhibition [9] [%] | % wild-type binding [10] [%] | % wild-type binding [11] [%] | % wild-type binding [12] [%] | % inhibition [13] [%] | % inhibition [14] [%] | % inhibition [15] [%] | further results
1 | Mac-1 (αMβ2) mutant D294C/T307C (from UniProt P05107 23-769) (receptor) | – | – | – | – | – | – | – | – | – | – | – | – | percent of binding by activated wild type transfectant (iC3b coated on plastic [1]): 0 to 5%; percent of binding by activated wild type transfectant (iC3b coated on plastic [2]): 5 to 25%
2 | Mac-1 (αMβ2) mutant F297C/A304C (from UniProt P05107 23-769) (receptor) | – | – | – | – | – | – | – | – | – | – | – | – | percent of binding by activated wild type transfectant (iC3b coated on plastic [1]): 0 to 5%
3 | Mac-1 (αMβ2) mutant Q163C/R313C (locked closed) (from UniProt P05107 23-769) (receptor) | – | – | – | – | – | – | – | – | – | – | – | – | percent of binding by activated wild type transfectant (iC3b coated on plastic [1]): 0 to 5%; percent of binding by activated wild type transfectant (iC3b coated on plastic [2]): 0 to 5%; percent of binding by activated wild type transfectant (iC3b coated on plastic [3]): 50 to 75%
4 | Mac-1 (αMβ2) mutant Q298C/N301C (from UniProt P05107 23-769) (receptor) | – | – | – | – | – | – | – | – | – | – | – | – | percent of binding by activated wild type transfectant (iC3b coated on plastic [1]): 0 to 5%; percent of binding by activated wild type transfectant (iC3b coated on plastic [2]): 5 to 25%
5 | anti-β2 (CD18) monoclonal antibody CBRLFA-1/7 | 95.2 | 97.2 | 95.3 | 91.7 | 5.04 | 5.77 | – | – | – | – | – | – | –
6 | anti-β2 (CD18) monoclonal antibody TS1/18 | 97.4 | 106 | 99.8 | 95.7 | 98.5 | 5.9 | 87.3 | 87.9 | 108 | > 90 | – | – | –
7 | mAb YFC51 (antibody) | 101 | 111 | 103 | 95.1 | 98.4 | 0.08 | – | – | – | > 90 | – | – | –
8 | monoclonal antibody 6.5E | – | – | – | – | 98.4 | 5.79 | – | – | – | > 90 | – | – | –
9 | monoclonal antibody 25-3-1 | 88.5 | 85.7 | 93.1 | 90.9 | 92 | 2.53 | – | – | – | > 90 | 3.71 | 90.5 | –
10 | monoclonal antibody BL5 | 92.4 | 97.6 | 92.4 | 85.8 | 97.5 | 90.7 | 92.4 | 93.3 | 88.3 | – | 91.1 | 97 | –
11 | monoclonal antibody CBRLFA-1/1 | 55.5 | 118 | 43.6 | 95.9 | 94.7 | 2.85 | 93.3 | 86.1 | 89.4 | > 90 | 9.03 | 92.5 | % of wild-type binding [16]: 40 to 50%; % of binding to the wild-type I-domain [17]: 80%
12 | monoclonal antibody CBRLFA-1/9 | – | – | – | – | 97.8 | 3.6 | – | – | – | – | – | – | % wild-type binding [18]: 84.7%
13 | monoclonal antibody CLBLFA-1/1 | 96.5 | 100 | – | – | 94.6 | 6.69 | – | – | – | > 90 | – | – | –
14 | monoclonal antibody F8.8 | 102 | 93.9 | 93.7 | 83.6 | 97.6 | 98.2 | 99.6 | 95.9 | 95.5 | – | 91.9 | 94.5 | –
15 | monoclonal antibody May.017 | – | – | – | – | 97.8 | 2.98 | – | – | – | > 90 | – | – | –
16 | monoclonal antibody May.035 | 92.6 | 101 | 92.6 | 82.1 | 95.8 | 93.3 | 95.4 | 95.8 | 106 | – | 97.4 | 96.2 | –
17 | monoclonal antibody RR1/1 | – | – | – | – | – | – | – | – | – | – | – | – | % inhibition [19]: 96%; % inhibition [20]: 97.9%
18 | monoclonal antibody S6F1 | 97.4 | 85.7 | 89.4 | 95.3 | 6.19 | 9.7 | 86.4 | 98.3 | 92.3 | – | – | – | –
19 | mouse anti-human αL (CD11a) monoclonal antibody TS1/11 | 96 | 105 | 94.4 | 93.7 | 96.5 | 41.3 | – | – | – | > 90 | 45.2 | 94.1 | % inhibition [21]: 40 to 60%
20 | mouse anti-human αL (CD11a) monoclonal antibody TS1/12 | 87.3 | 106 | 88.7 | 102 | 97.5 | 63.7 | 104 | 99.3 | 93.7 | > 90 | 49 | 95.7 | % inhibition [21]: 40 to 60%
21 | mouse anti-human αL (CD11a) monoclonal antibody TS1/22 | 93.1 | 110 | 95.8 | 91 | 96.9 | 93.6 | 96.2 | 103 | 92.2 | – | 95.1 | 95.8 | –
22 | mouse anti-human αL (CD11a) monoclonal antibody TS2/4 | – | – | – | – | 6.99 | 2.82 | – | – | – | – | – | – | –
23 | mouse anti-human αL (CD11a) monoclonal antibody TS2/6 | 89.2 | 95.9 | 84.9 | 78.6 | 91.8 | 88.1 | 88.2 | 91.4 | 91.7 | – | 79.1 | 96.8 | –
24 | mouse anti-human αL (CD11a) monoclonal antibody TS2/14 | 95.4 | 103 | 85.5 | 83.3 | 96.2 | 8.55 | 100 | 103 | 103 | > 90 | 2.95 | 94.5 | –
